Assay results from article PMC10864110.

B1: CCND1 dsDNA (dsDNA)
DNA 1: CAGTAGCAGCGAGCAGCAGAGTCCGCACGCTCCGGCGAGGGGCAGAAGAGCGCGAGGGAGCGCGGGGCAGCAGAAGCGAGAGCCG
DNA 2: CGGCTCTCGCTTCTGCTGCCCCGCGCTCCCTCGCGCTCTTCTGCCCCTCGCCGGAGCGTGCGGACTCTGCTGCTCGCTGCTACTG
B2: WDR74 dsDNA (dsDNA)
DNA 1: CGTTCCTGGAAGTACTGCAATACCAGGTCGATGCGTGGAGTGGACGGAGCAAGCTCCTATTCCATCTCCTATTTCCAAAAATCCA
DNA 2: TGGATTTTTGGAAATAGGAGATGGAATAGGAGCTTGCTCCGTCCACTCCACGCATCGACCTGGTATTGCAGTACTTCCAGGAACG
B3: LINC00869 dsDNA (dsDNA)
DNA 1: TGTAAAGGGTGAGGCATATGAGGCTGCGGCGGGGCGGAGGGGCGTGAGCTTATACTTATGTTTATCTGGCAGAAGAAATGTTATG
DNA 2: CATAACATTTCTTCTGCCAGATAAACATAAGTATAAGCTCACGCCCCTCCGCCCCGCCGCAGCCTCATATGCCTCACCCTTTACA

Biological target: GST-PC4 WT (Homo sapiens, UniProt P53999 2-127)
Experiment: EMSA

Binding result, no binding:
B1, B2, B3
